Results published in article PMC3805332 (ACS Chemical Biology, 2013).
Where “and” joins values, the source holds several entries; their conditions need not be identical. Equal entries are not always repeated.

Legend:
[1] = target: T1, M. smegmatis TreS (recombinant) (M. smegmatis, UniProt A0R6E0 1-593); test: SEC; M. smegmatis Pep2-K145A with M. smegmatis TreS (Figure S6B); conditions not given; conditions: both partners purified
T1 sequence (looked up): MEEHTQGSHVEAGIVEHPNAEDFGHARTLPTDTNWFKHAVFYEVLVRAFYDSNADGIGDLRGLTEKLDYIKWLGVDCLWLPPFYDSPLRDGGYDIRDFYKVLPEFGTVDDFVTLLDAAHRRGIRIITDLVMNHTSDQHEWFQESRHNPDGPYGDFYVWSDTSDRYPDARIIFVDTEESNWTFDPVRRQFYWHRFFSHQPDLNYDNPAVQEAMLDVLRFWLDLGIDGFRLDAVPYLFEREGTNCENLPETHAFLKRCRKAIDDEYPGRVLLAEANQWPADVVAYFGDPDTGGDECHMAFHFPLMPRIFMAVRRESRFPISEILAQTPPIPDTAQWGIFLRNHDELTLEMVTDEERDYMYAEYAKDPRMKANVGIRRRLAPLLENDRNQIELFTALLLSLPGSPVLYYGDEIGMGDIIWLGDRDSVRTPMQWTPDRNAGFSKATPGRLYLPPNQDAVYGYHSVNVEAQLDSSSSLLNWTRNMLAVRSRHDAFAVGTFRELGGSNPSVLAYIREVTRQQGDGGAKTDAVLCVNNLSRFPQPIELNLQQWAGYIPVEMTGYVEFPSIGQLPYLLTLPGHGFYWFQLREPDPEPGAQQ

[2] = target: the molecule itself; test: AUC
[3] = target: M. tuberculosis maltokinase Pep2 (M. tuberculosis H37Rv, UniProt O07177 1-455); test: SEC; conditions: both partners purified

B1: M. smegmatis Pep2-K145A (enzyme)
chain: not shown
B1: binds [1].

B2: M. tuberculosis trehalose synthase TreS (enzyme)
chain: MNEAEHSVEHPPVQGSHVEGGVVEHPDAKDFGSAAALPADPTWFKHAVFYEVLVRAFFDASADGSGDLRGLIDRLDYLQWLGIDCIWLPPFYDSPLRDGGYDIRDFYKVLPEFGTVDDFVALVDAAHRRGIRIITDLVMNHTSESHPWFQESRRDPDGPYGDYYVWSDTSERYTDARIIFVDTEESNWSFDPVRRQFYWHRFFSHQPDLNYDNPAVQEAMIDVIRFWLGLGIDGFRLDAVPYLFEREGTNCENLPETHAFLKRVRKVVDDEFPGRVLLAEANQWPGDVVEYFGDPNTGGDECHMAFHFPLMPRIFMAVRRESRFPISEIIAQTPPIPDMAQWGIFLRNHDELTLEMVTDEERDYMYAEYAKDPRMKANVGIRRRLAPLLDNDRNQIELFTALLLSLPGSPVLYYGDEIGMGDVIWLGDRDGVRIPMQWTPDRNAGFSTANPGRLYLPPSQDPVYGYQAVNVEAQRDTSTSLLNFTRTMLAVRRRHPAFAVGAFQELGGSNPSVLAYVRQVAGDDGDTVLCVNNLSRFPQPIELDLQQWTNYTPVELTGHVEFPRIGQVPYLLTLPGHGFYWFQLTTHEVGAPPTCGGERRL
In the case of B2, the “stoichiometry N” value [2] is reported as 4 and 8 and the binding result [3] is reported as “binds”.
